{"source": "paper PMC7168832", "key": {"[1]": {"molecular_target": "prohibitin isoform 1 (human (endogenous in SH-SY5Y, U-87 MG, CHME-3)) (UniProt P35232)", "sequence (P35232 whole entry, canonical isoform)": "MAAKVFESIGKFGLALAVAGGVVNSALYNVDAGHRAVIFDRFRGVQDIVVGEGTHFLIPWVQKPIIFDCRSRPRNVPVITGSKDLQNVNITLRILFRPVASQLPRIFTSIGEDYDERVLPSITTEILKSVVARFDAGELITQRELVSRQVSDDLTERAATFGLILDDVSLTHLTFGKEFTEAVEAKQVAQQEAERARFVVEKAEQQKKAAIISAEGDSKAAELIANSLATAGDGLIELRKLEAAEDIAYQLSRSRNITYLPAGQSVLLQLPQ"}, "[2]": {"molecular_target": "prohibitin-2 isoform 1 (human (endogenous in SH-SY5Y, U-87 MG, CHME-3)) (UniProt Q99623)", "sequence (Q99623 whole entry, canonical isoform)": "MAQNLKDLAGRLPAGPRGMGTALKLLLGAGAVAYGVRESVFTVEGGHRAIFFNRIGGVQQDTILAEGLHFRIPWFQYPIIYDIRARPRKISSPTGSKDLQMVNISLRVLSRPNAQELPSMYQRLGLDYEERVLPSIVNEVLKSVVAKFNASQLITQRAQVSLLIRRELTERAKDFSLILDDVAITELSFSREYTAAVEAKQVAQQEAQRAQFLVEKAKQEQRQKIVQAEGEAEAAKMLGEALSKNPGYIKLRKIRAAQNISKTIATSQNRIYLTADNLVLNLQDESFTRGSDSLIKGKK"}, "[3]": {"molecular_target": "prohibitin isoform 1 (human (endogenous in SH-SY5Y, U-87 MG, CHME-3)) (UniProt P35232)", "remark": "listed apart in the source"}, "[4]": {"molecular_target": "prohibitin-2 isoform 1 (human (endogenous in SH-SY5Y, U-87 MG, CHME-3)) (UniProt Q99623)", "remark": "listed apart in the source"}, "[5]": {"molecular_target": "prohibitin-2 isoform 1 (human (endogenous in SH-SY5Y, U-87 MG, CHME-3)) (UniProt Q99623)", "remark": "listed apart in the source"}}, "data": [{"substance": "DENV-3 (16562), purified virus (complex)", "values": [{"measurement": "% fluorescent (DENV-3 antigen) positive SH-SY5Y cells by IFA 30 h PI, cells pre-incubated with anti-PHB1 antibody, 1 to 2 μg (17 to 10%; virus control 40%, anti-actin control 35%)", "setting": "[1]", "result": 17, "unit": "%"}, {"measurement": "% fluorescent (DENV-3 antigen) positive SH-SY5Y cells by IFA 30 h PI, cells pre-incubated with anti-PHB2 antibody, 1 to 2 μg (11 to 6%; virus control 40%, anti-actin control 35%)", "setting": "[2]", "result": 11, "unit": "%"}, {"measurement": "reduction in DENV-3 plaques, CHME-3 cells pre-incubated with PHB1 antibody", "setting": "[3]", "result": 73.3, "unit": "%"}, {"measurement": "reduction in DENV-3 plaques, SH-SY5Y cells pre-incubated with anti-PHB1 antibody", "setting": "[3]", "result": 55, "unit": "%"}, {"measurement": "reduction in DENV-3 plaques, CHME-3 cells pre-incubated with PHB2 antibody", "setting": "[4]", "result": 82.2, "unit": "%"}, {"measurement": "reduction in DENV-3 plaques, SH-SY5Y cells pre-incubated with anti-PHB2 antibody", "setting": "[4]", "result": 75, "unit": "%"}, {"measurement": "entry assay: reduction in virus titre, CHME-3 cells with bound DENV-3 (MOI 100) treated with PHB2 polyclonal antibody at 37 °C for 1.5 h", "setting": "[5]", "result": 82, "unit": "%"}]}]}
